Results taken from patent US20160238596.

System: Indicator molecule containing the cleavable sequence GPQGIFGQ with a terminal biotin group connected via a polyethylene glycol spacer/linker (intact)

Active MMP-9 (Alere San Diego), sequence (chain, as listed by the source): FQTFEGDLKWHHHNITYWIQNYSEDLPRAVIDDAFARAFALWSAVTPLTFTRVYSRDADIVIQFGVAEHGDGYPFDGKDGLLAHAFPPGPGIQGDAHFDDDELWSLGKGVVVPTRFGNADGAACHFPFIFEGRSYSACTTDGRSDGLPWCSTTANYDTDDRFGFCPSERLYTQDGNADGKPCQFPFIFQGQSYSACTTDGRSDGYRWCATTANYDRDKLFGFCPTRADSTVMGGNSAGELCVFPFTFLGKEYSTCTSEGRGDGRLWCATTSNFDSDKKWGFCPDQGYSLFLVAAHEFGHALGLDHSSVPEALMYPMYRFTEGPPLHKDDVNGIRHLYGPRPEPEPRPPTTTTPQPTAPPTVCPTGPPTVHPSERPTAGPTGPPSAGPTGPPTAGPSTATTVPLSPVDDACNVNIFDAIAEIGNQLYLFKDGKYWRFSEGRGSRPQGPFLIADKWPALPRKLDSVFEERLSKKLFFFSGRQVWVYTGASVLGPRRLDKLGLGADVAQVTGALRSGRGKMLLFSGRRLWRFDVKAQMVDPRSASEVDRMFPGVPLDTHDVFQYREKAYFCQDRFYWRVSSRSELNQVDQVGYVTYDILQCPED
MMP 8 (Enzo), sequence (chain, as listed by the source): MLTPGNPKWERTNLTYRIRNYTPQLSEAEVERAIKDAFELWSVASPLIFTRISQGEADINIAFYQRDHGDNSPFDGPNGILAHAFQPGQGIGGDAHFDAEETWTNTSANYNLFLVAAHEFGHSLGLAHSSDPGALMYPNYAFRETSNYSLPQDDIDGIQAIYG
MMP 2 (Enzo), sequence (chain, as listed by the source): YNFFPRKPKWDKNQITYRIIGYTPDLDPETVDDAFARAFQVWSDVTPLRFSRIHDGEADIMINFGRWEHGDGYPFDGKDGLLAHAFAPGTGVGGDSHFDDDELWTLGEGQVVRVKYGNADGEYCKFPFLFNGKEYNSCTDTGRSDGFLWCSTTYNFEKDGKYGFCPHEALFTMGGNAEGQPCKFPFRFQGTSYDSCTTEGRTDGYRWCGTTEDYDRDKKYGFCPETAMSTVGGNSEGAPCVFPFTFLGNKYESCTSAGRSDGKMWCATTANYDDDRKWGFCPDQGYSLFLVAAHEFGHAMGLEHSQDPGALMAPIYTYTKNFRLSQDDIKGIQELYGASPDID
MMP 3 (Enzo), sequence (chain, as listed by the source): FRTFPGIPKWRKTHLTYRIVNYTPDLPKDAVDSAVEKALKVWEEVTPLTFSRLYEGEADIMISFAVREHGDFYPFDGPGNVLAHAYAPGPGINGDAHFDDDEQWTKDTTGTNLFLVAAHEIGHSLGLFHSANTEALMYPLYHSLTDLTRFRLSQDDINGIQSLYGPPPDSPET
MMP 9 (Enzo), sequence (chain, as listed by the source): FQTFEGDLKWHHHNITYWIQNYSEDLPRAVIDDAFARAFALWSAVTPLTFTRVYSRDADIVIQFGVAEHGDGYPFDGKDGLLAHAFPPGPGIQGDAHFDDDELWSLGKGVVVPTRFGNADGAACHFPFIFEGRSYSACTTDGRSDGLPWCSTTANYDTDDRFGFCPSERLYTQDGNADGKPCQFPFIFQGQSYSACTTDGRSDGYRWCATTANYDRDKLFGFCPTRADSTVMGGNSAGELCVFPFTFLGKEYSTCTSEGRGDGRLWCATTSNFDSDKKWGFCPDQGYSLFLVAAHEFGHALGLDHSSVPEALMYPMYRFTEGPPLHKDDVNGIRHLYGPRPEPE
MMP 10 (Enzo), sequence (chain, as listed by the source): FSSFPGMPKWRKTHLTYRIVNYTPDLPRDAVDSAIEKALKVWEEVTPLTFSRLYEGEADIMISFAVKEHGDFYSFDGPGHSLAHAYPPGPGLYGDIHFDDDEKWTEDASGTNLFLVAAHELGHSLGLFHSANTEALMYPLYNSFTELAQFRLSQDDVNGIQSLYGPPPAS

Question: Which OD405 (streptavidin plate ELISA with CF1522-AP) at 0.39 ng/ml MMP9 does the source give for Active MMP-9 (Alere San Diego) here?
Answer: Its OD405 (streptavidin plate ELISA with CF1522-AP) at 0.39 ng/ml MMP9 is 0.14 OD405.

Question: And the OD405 (streptavidin plate ELISA with CF1522-AP) at 0.78 ng/ml MMP9?
Answer: Its OD405 (streptavidin plate ELISA with CF1522-AP) at 0.78 ng/ml MMP9 is 0.14 OD405.

Question: And the OD405 (streptavidin plate ELISA with CF1522-AP) at 1.56 ng/ml MMP9?
Answer: The OD405 (streptavidin plate ELISA with CF1522-AP) at 1.56 ng/ml MMP9 was 0.14 OD405.

Question: And the OD405 (streptavidin plate ELISA with CF1522-AP) at 3.13 ng/ml MMP9?
Answer: Its OD405 (streptavidin plate ELISA with CF1522-AP) at 3.13 ng/ml MMP9 is 0.13 OD405.

Question: What about the OD405 (streptavidin plate ELISA with CF1522-AP) at 6.25 ng/ml MMP9 of the same substance?
Answer: The OD405 (streptavidin plate ELISA with CF1522-AP) at 6.25 ng/ml MMP9 was 0.17 OD405.

Question: What about the OD405 (streptavidin plate ELISA with CF1522-AP) at 12.50 ng/ml MMP9 of the same substance?
Answer: Its OD405 (streptavidin plate ELISA with CF1522-AP) at 12.50 ng/ml MMP9 is 0.18 OD405.

Question: And the OD405 (streptavidin plate ELISA with CF1522-AP) at 25.00 ng/ml MMP9?
Answer: The OD405 (streptavidin plate ELISA with CF1522-AP) at 25.00 ng/ml MMP9 was 0.27 OD405.

Question: And the OD405 (streptavidin plate ELISA with CF1522-AP) at 50.00 ng/ml MMP9?
Answer: The OD405 (streptavidin plate ELISA with CF1522-AP) at 50.00 ng/ml MMP9 was 0.5 OD405.

Question: And the “detectable limit for MMP-9 (lateral flow, sample volume of 75 µl)” value?
Answer: The value was “approximately 4 ng/ml”.

Question: What about the reader value (lateral flow, CF1522 gold) at 0.9765625 ng/ml MMP9 of the same substance?
Answer: The reader value (lateral flow, CF1522 gold) at 0.9765625 ng/ml MMP9 was 338 reader units.

Question: What about the reader value (lateral flow, CF1522 gold) at 1.953125 ng/ml MMP9 of the same substance?
Answer: Its reader value (lateral flow, CF1522 gold) at 1.953125 ng/ml MMP9 is 343 reader units.

Question: And the reader value (lateral flow, CF1522 gold) at 3.90625 ng/ml MMP9?
Answer: The reader value (lateral flow, CF1522 gold) at 3.90625 ng/ml MMP9 was 413 reader units.

Question: And the reader value (lateral flow, CF1522 gold) at 7.8125 ng/ml MMP9?
Answer: Its reader value (lateral flow, CF1522 gold) at 7.8125 ng/ml MMP9 is 524 reader units.

Question: What about the reader value (lateral flow, CF1522 gold) at 15.625 ng/ml MMP9 of the same substance?
Answer: The reader value (lateral flow, CF1522 gold) at 15.625 ng/ml MMP9 was 882 reader units.

Question: And the reader value (lateral flow, CF1522 gold) at 31.25 ng/ml MMP9?
Answer: The reader value (lateral flow, CF1522 gold) at 31.25 ng/ml MMP9 was 2030 reader units.

Question: What about the reader value (lateral flow, CF1522 gold) at 62.5 ng/ml MMP9 of the same substance?
Answer: The reader value (lateral flow, CF1522 gold) at 62.5 ng/ml MMP9 was 3830 reader units.

Question: And the reader value (lateral flow, CF1522 gold) at 125 ng/ml MMP9?
Answer: The reader value (lateral flow, CF1522 gold) at 125 ng/ml MMP9 was 5580 reader units.

Question: And the reader value (lateral flow, CF1522 gold) at 250 ng/ml MMP9?
Answer: The reader value (lateral flow, CF1522 gold) at 250 ng/ml MMP9 was 6220 reader units.

Question: And the reader value (lateral flow, CF1522 gold) at 500 ng/ml MMP9?
Answer: Its reader value (lateral flow, CF1522 gold) at 500 ng/ml MMP9 is 6730 reader units.

Question: What about the reader value (lateral flow, CF1522 gold) at 1000 ng/ml MMP9 of the same substance?
Answer: The reader value (lateral flow, CF1522 gold) at 1000 ng/ml MMP9 was 6770 reader units.

Question: What about the “sensitivity of the MMP9 standard curves (ELISA and Lateral Flow)” value of the same substance?
Answer: The value was “sensitivity down to 4 ng/ml”.

Question: With MMP 2 (Enzo) as the substance, how does the Reader value (lateral flow, CF1522 gold) at 0.5 µg/ml MMP read?
Answer: Its Reader value (lateral flow, CF1522 gold) at 0.5 µg/ml MMP is 1610 reader units.

Question: How did the Reader value (lateral flow, CF1522 gold) at 0.5 µg/ml MMP turn out when MMP 3 (Enzo) was run?
Answer: The Reader value (lateral flow, CF1522 gold) at 0.5 µg/ml MMP was 336 reader units.

Question: With MMP 8 (Enzo) as the substance, how does the Reader value (lateral flow, CF1522 gold) at 0.5 µg/ml MMP read?
Answer: Its Reader value (lateral flow, CF1522 gold) at 0.5 µg/ml MMP is 1140 reader units.

Question: MMP 9 (Enzo) was tested. Which Reader value (lateral flow, CF1522 gold) at 0.5 µg/ml MMP did it give?
Answer: The Reader value (lateral flow, CF1522 gold) at 0.5 µg/ml MMP was 3840 reader units.

Question: For MMP 10 (Enzo), which Reader value (lateral flow, CF1522 gold) at 0.5 µg/ml MMP is on record?
Answer: Its Reader value (lateral flow, CF1522 gold) at 0.5 µg/ml MMP is 444 reader units.
